This is an account of results in patent US20230272099A1 (Chugai, published 2023).

In assay [1] the target is T1, human FcgRIa extracellular domain (human, UniProt P12314 16-292).
T1 construct: extracellular domain; also called hFcgRIa
Description: SPR 25C.

The target of assay [2] is T2, human FcgRIIa type H extracellular domain (human, UniProt P12318 34-217).
T2 construct: extracellular domain; also called hFcgRIIaH
T2 sequence (looked up): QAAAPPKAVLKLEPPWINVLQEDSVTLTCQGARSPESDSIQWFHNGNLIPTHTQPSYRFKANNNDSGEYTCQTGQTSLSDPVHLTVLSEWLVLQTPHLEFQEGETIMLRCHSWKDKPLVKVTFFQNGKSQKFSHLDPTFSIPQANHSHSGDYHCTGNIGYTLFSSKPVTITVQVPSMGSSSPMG
The experiment in a line: SPR 25C.

Assay [3] has as its target T3, human FcgRIIa type R extracellular domain (human, UniProt P12318 34-217).
T3 construct: extracellular domain; also called hFcgRIIaR
T3 sequence (looked up): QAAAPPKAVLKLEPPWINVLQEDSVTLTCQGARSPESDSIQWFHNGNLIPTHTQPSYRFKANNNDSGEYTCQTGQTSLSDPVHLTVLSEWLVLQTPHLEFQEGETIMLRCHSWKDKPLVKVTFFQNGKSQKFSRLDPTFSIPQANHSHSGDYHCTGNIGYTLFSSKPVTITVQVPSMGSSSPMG
The experiment in a line: SPR 25C.

The target of assay [4] is T4, human FcgRIIb extracellular domain (human, UniProt P31994 43-217).
T4 construct: extracellular domain; also called hFcgRIIb
T4 sequence (looked up): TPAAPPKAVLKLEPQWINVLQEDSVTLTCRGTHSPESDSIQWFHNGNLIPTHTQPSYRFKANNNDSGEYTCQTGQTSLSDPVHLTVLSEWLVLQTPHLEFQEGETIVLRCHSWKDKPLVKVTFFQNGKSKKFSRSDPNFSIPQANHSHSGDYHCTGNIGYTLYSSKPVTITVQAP
Description: SPR 25C.

Assay [5] deals with T5, human FcgRIIIa F158 extracellular domain (human, UniProt P08637 17-208).
T5 construct: extracellular domain; also called hFcgRIIIaF
Description: SPR 25C.

The target in assay [6] is T6, human FcgRIIIa V158 extracellular domain (human, UniProt P08637 17-208).
T6 construct: extracellular domain; also called hFcgRIIIaV
Description: SPR 25C.

In assay [7] the target is human FcRn (human, UniProt P55899 24-290; P61769 21-119). Description: SPR 25C pH 6.0, steady state. The method, boiled down:
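Antibody (~400 RU) captured on anti-Fab-lambda sensor chip, human FcRn injected as analyte.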

T6 sequence (P08637 17-208 F176V): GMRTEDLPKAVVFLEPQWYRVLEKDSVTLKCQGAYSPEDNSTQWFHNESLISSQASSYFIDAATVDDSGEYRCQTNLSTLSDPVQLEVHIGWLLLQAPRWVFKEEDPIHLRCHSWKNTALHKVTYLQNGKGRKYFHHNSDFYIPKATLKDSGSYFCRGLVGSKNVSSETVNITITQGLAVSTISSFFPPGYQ
Sequence of human FcRn (P55899 24-290 limits assumed, chain 1 of 2): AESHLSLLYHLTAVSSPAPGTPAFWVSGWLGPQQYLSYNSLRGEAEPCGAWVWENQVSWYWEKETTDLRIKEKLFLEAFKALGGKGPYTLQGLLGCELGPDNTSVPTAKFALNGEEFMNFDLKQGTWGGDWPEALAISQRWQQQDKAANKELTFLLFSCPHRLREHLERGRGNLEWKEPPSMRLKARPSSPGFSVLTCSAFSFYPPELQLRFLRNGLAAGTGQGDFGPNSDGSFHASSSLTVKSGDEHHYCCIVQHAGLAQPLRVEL
Sequence of human FcRn (P61769 21-119 limits assumed, chain 2 of 2): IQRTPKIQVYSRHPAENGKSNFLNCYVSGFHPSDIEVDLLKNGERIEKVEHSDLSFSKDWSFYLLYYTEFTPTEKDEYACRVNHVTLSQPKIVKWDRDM
T1 sequence (P12314 16-292): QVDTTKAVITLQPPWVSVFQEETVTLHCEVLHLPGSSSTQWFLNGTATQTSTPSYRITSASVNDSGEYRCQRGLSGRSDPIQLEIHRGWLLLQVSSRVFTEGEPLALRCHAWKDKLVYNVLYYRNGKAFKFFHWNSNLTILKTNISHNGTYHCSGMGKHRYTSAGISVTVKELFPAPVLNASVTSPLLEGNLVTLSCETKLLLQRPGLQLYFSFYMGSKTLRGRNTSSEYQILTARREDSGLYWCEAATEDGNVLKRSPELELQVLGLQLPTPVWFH
T5 sequence (P08637 17-208): as the sequence (P08637 17-208 F176V) above, with V160F counted along it

B1: A375-SCF056a/B167-Lamlib (antibody, human IgG1, lambda)
heavy: EVQLVESGGGLVKPGGSLRLSCAASGFTFSTFTMNWVRQAPGKGLEWVSSISSKSTYIEYADSFKVRFTISRDNAKNSLYLQMNSLRAEDTAVYYCARYGAKNFLNWVFDYWGQGTLVTVSSASTKGPSVFPLAPSSKSTSGGTAALGCLVKDYFPEPVTVSWNSGALTSGVHTFPAVLQSSGLYSLSSVVTVPSSSLGTQTYICNVNHKPSNTKVDKRVEPKSCDKTHTCPPCPAPELLNGPSVFLFPPKPKDTLMISRTPEVTCVVVDVSDEDPEVKFNWYVDGVEVHNAKTKPREEQYNSTYRVVSVLTVLHRDWLNGKEYKCKVSNKALPKPIEKTISKAKGQPREPQVYTLPPSREEMTKNQVSLTCLVKGFYPSDIAVEWESNGQPENNYKTTPPVLDSDGSFFLYSKLTVDKSRWQQGNVFSCSVMHEALHNHYTQKSLSLSP
light: QSALTQPPSASGSPGQTVTISCTGTRYDVGYYEYVSWYQQHPGKAPKLMIYETSKRLSGVPDRFSGSKSGNTASLTVSGLQAEDEADYYCSSYRYEHQVSFGGGTKLTVLGQPKAAPSVTLFPPSSEELQANKATLVCLISDFYPGAVTVAWKADSSPVKAGVETTTPSKQSNNKYAASSYLSLTPEQWKSHRSYSCQVTHEGSTVEKTVAPTECS
notes: copies: 2 + 2
A word on the Kd: it is a measure of binding affinity in units of concentration. Read a high Kd as weaker binding. For B1, the “binding per 1RU antibody” value amounted to 0.0395 RU in assay [1]; 0.0529 RU in assay [2]; 0.0331 RU in assay [3]; 0.0399 RU in assay [4]; 0.0011 RU in assay [5]; 0.0023 RU in assay [6]. Besides, the “relative binding (A375-G1T3/B167-Lamlib=1)” value (from here on “relative binding”) in assay [1] is 0.49; in assay [2] it was 0.93; in assay [3] it was 0.71; in assay [4], 3.64; in assay [5], 0.05; in assay [6] it was 0.03. For the same molecule, in assay [7], the Kd was found to be 956 nM.

B2: A375-SCF056aPh/B167-Lamlib (antibody, human IgG1, lambda)
heavy: EVQLVESGGGLVKPGGSLRLSCAASGFTFSTFTMNWVRQAPGKGLEWVSSISSKSTYIEYADSFKVRFTISRDNAKNSLYLQMNSLRAEDTAVYYCARYGAKNFLNWVFDYWGQGTLVTVSSASTKGPSVFPLAPSSKSTSGGTAALGCLVKDYFPEPVTVSWNSGALTSGVHTFPAVLQSSGLYSLSSVVTVPSSSLGTQTYICNVNHKPSNTKVDKRVEPKSCDKTHTCPPCPAPELWNGPSVFLFPPKPKDTLMISRTPEVTCVVVDVSDEDPEVKFNWYVDGVEVHNAKTKPREEQYNSTYRVVSVLTVLHRDWLNGKEYKCKVSNKALPKPIEKTISKAKGQPREPQVYTLPPSREEMTKNQVSLTCLVKGFYPSDIAVEWESNGQPENNYKTTPPVLDSDGSFFLYSKLTVDKSRWQQGNVFSCSVMHEALHNHYTQKSLSLSP
light: QSALTQPPSASGSPGQTVTISCTGTRYDVGYYEYVSWYQQHPGKAPKLMIYETSKRLSGVPDRFSGSKSGNTASLTVSGLQAEDEADYYCSSYRYEHQVSFGGGTKLTVLGQPKAAPSVTLFPPSSEELQANKATLVCLISDFYPGAVTVAWKADSSPVKAGVETTTPSKQSNNKYAASSYLSLTPEQWKSHRSYSCQVTHEGSTVEKTVAPTECS
notes: copies: 2 + 2
As for B2, the “binding per 1RU antibody” value in assay [1] came out at 0.0019 RU; in assay [2], 0.0314 RU; in assay [3], 0.0299 RU; in assay [4], 0.0292 RU; in assay [5] it was 0.001 RU; in assay [6] it was 0.001 RU. Also, the “relative binding” value in assay [1] is 0.02; in assay [2] it was 0.55; in assay [3] it was 0.64; in assay [4], 2.67; in assay [5], 0.05; in assay [6], 0.01. Binding in assay [7] was put at a Kd of 1000 nM.

B3: A375-SCF057a/B167-Lamlib (antibody, human IgG1, lambda)
heavy: EVQLVESGGGLVKPGGSLRLSCAASGFTFSTFTMNWVRQAPGKGLEWVSSISSKSTYIEYADSFKVRFTISRDNAKNSLYLQMNSLRAEDTAVYYCARYGAKNFLNWVFDYWGQGTLVTVSSASTKGPSVFPLAPSSKSTSGGTAALGCLVKDYFPEPVTVSWNSGALTSGVHTFPAVLQSSGLYSLSSVVTVPSSSLGTQTYICNVNHKPSNTKVDKRVEPKSCDKTHTCPPCPAPELLNGPSVFLFPPKPKDTLMISRTPEVTCVVVDVSDEDPEVKFNWYVDGVEVHNAKTKPREEQYNSTYRVVSVLTVLHRDWLNGKEYKCKVSNKALPKPIEKTISKAKGQRREPQVYTLPPSREEMTKNQVSLTCLVKGFYPSDIAVEWESNGQPENNYKTTPPVLDSDGSFFLYSKLTVDKSRWQQGNVFSCSVMHEALHNHYTQKSLSLSP
light: QSALTQPPSASGSPGQTVTISCTGTRYDVGYYEYVSWYQQHPGKAPKLMIYETSKRLSGVPDRFSGSKSGNTASLTVSGLQAEDEADYYCSSYRYEHQVSFGGGTKLTVLGQPKAAPSVTLFPPSSEELQANKATLVCLISDFYPGAVTVAWKADSSPVKAGVETTTPSKQSNNKYAASSYLSLTPEQWKSHRSYSCQVTHEGSTVEKTVAPTECS
With B3, the “binding per 1RU antibody” value in assay [1] was 0.0405 RU; in assay [2], 0.0525 RU; in assay [3], 0.0367 RU; in assay [4], 0.0412 RU; in assay [5], 0.0013 RU; in assay [6], 0.0025 RU. The “relative binding” value is 0.5 in assay [1]; 0.93 in assay [2]; 0.79 in assay [3]; 3.76 in assay [4]; 0.06 in assay [5]; 0.04 in assay [6]. In assay [7], the Kd stood at 928 nM.

B4: A375-SCF057aPh/B167-Lamlib (antibody, human IgG1, lambda)
heavy: EVQLVESGGGLVKPGGSLRLSCAASGFTFSTFTMNWVRQAPGKGLEWVSSISSKSTYIEYADSFKVRFTISRDNAKNSLYLQMNSLRAEDTAVYYCARYGAKNFLNWVFDYWGQGTLVTVSSASTKGPSVFPLAPSSKSTSGGTAALGCLVKDYFPEPVTVSWNSGALTSGVHTFPAVLQSSGLYSLSSVVTVPSSSLGTQTYICNVNHKPSNTKVDKRVEPKSCDKTHTCPPCPAPELWNGPSVFLFPPKPKDTLMISRTPEVTCVVVDVSDEDPEVKFNWYVDGVEVHNAKTKPREEQYNSTYRVVSVLTVLHRDWLNGKEYKCKVSNKALPKPIEKTISKAKGQRREPQVYTLPPSREEMTKNQVSLTCLVKGFYPSDIAVEWESNGQPENNYKTTPPVLDSDGSFFLYSKLTVDKSRWQQGNVFSCSVMHEALHNHYTQKSLSLSP
light: QSALTQPPSASGSPGQTVTISCTGTRYDVGYYEYVSWYQQHPGKAPKLMIYETSKRLSGVPDRFSGSKSGNTASLTVSGLQAEDEADYYCSSYRYEHQVSFGGGTKLTVLGQPKAAPSVTLFPPSSEELQANKATLVCLISDFYPGAVTVAWKADSSPVKAGVETTTPSKQSNNKYAASSYLSLTPEQWKSHRSYSCQVTHEGSTVEKTVAPTECS
As for B4, the “binding per 1RU antibody” value in assay [1] was 0.0021 RU; in assay [2] it was 0.0365 RU; in assay [3], 0.0364 RU; in assay [4], 0.0345 RU; in assay [5], -0.0003 RU; in assay [6] it was 0.0005 RU. Further, the “relative binding” value in assay [1] is 0.03; in assay [2], 0.64; in assay [3], 0.79; in assay [4] it was 3.15; in assay [5], -0.02; in assay [6], 0.01. Besides, the affinity in assay [7], expressed as Kd, was 909 nM.
